Experimental data published in patent US20220195015A1 (published 2022).

Legend:
[1] = molecular target: SARS-CoV-2 spike protein on HIV-1 pseudotyped particles (SARS-CoV-2, UniProt P0DTC2 14-1254); experiment: cell-based or functional assay
[2] = molecular target: SARS-CoV-2 RBD (wild type) (SARS-CoV-2, UniProt P0DTC2 319-539); experiment: ELISA on coated RBD
[3] = molecular target: SARS-CoV-2 receptor binding domain (RBD), wild type (SARS-CoV-2, UniProt P0DTC2 319-539); experiment: ELISA, RBD coated on the plate, antibody titrated

B1: C095 (antibody, V domains shown)
VH: VQLVEAGGGVVQPGRSLRLSCAASGLAFSIYGMHWVRQAPGKGLEWVAIVAQDGSKKYYADSVKGRFTISRDNSKNTLYLEMNSLRTEDTAVYYCVKEGRPSDTVVVVAFDYWGQGSLVTVSS
VL: DIQLTQSPSSLSASVGDRVTITCRASQSISNYLNWYQQKPGKAPKVIIYAASSLQSGVPSRFSGSGSGTDFTLTISSLQPEDFATYYCQQSHSIPRTFGQGTKVEIK
- Neutralization IC50 [1]: 0.0113 µg/mL
- Neutralization IC90 [1]: 0.0526 µg/mL

B2: C097 (antibody, V domains shown)
VH: QVQLQESGPGLVKPSQTLSLTCTVSGGSISSGPYYWSWIRQHPGKGLEWIGYIYYSGSTYYNPSLKSRVTISVDTSKKQFSLNLNSVTAADTAVYYCARVWQYYDSTGSFDYWGQGTLVTVSS
VL: DIVMTQSPLSLPVTPGEPASISCRSSRGLLHSNGYNYLDWYLQKPGQSPQLLIYLGSNRASGVPDRFSGSGSVTDFTLNISRVEAEDVGVYYCMQALQTPFTFGPGTKVDIK
- Neutralization IC50 [1]: 0.0096 µg/mL
- Neutralization IC90 [1]: 0.0311 µg/mL

B3: C098 (antibody, V domains shown)
VH: EVQLVESGGGLIQPGGSLRLSCAASGFTVSSNYMSWVRQAPGKGLEWVSVIYSGGSTYYADSVKGRFTISRDNSKNTLYLQMNSLRAEDTAVYYCARDLYSSGGTDIWGQGTMVTVSS
VL: not shown
- Neutralization IC50 [1]: 0.479 µg/mL
- Neutralization IC90 [1]: 4.25 µg/mL

B4: C099 (antibody, V domains shown)
VH: EVQLVESGGGLIQPGGSLRLSCAASGITVSSNYMSWVRQAPGKGLEWVSVMYAGGSTFYADSVKGRFTISRDDSKNTLFLQMNSLRAEDTAIYYCARDLYSSGGTDIWGQGTMVTVSS
VL: EIVLTQSPGTLSLSPGERATLSCRASQSIGSSYLAWYQQKPGLAPRLLIYGASRRATGIPDKFSGSGSGADFTLTISRLEPEDFAVYYCQQYGSSPGTFGQGTKVEIK
- Neutralization IC50 [1]: 0.0272 µg/mL
- Neutralization IC90 [1]: 0.0861 µg/mL

B5: C043 (antibody, V domains shown)
VH: QLVQSGPEVKKPGTSVKVSCKASGFTFYNSAVQWVRQARGQRLEWVGWIVVGSGNTDYAQKFQERVTMTRDLSTNTAYMEVNSLRSEDTAVYYCAAPYCSGGTCLDGFDIWGQGTMVTVSS
VL: EIVLTQSPGTLSLSPGERGTLSCRASQSVRSNYLAWYKQRPGQAPRLLVYGASSRATGIPDRFSGSGSGTDFTLTISRLEPEDFAVYYCQQYGSSPWTFGQGTKVEIK
- Neutralization IC50 [1]: 0.0106 µg/mL
- Neutralization IC90 [1]: 0.0744 µg/mL

B6: C044 (antibody, V domains shown)
VH: EVQLVESGGGLVQPGGSLRLSCAASGFTFSSYSMNWVRQAPGKGLEWVSYISSSSSTIYYADSVKGRFTISRDNAKNSLYLQMNSLRDEDTAVYYCAREAHDGALTDYGDYLNWFDPWGQGTLVTVSS
VL: SYELTQPPSVSVAPGKTARITCGGNNIGSKSVHWYQQKPGQAPVLVIYYDSDRPSGIPERFSGSNSGNTATLTISRVEAGDEADYYCQVWDSSSDHLYWVFGGGTKLTVL
- Neutralization IC50 [1]: > 10 µg/mL
- Neutralization IC90 [1]: > 10 µg/mL

B7: C045 (antibody, V domains shown)
VH: EVQLVESGGGLVQPGGSLRLSCAASGFTFSTYSMNWVRQAPGKGLEWVSYISSSSSTIHYADSVKGRFTISRDNAKNSLYLQMNSLRDEDTAVYYCAREAHDGALTDYGDYLNWFDPWGQGTLVTVSS
VL: SYELTQPPSVSVAPGKTARITCGGTNIGSKNVHWYQQKPGQAPVLVIYYDNDRPSGIPERFSGSNSGNTATLTISRVEAGDEADYYCQVWDTTSDHFYWVFGGGTKLTVL
- Neutralization IC50 [1]: > 10 µg/mL
- Neutralization IC90 [1]: > 10 µg/mL

B8: C048 (antibody, V domains shown)
VH: VQLQESGPGLVKPSETLSLTCAVSGGSVSSGNYYWNWIRQPPGKGLEWIGYIYYSGSTNYNPSLKSRVTISVDTSKNQFSLKLNSVTAADTAVYHCARETYYYDSSGYYISDAFDIWGQGTMVTVSS
VL: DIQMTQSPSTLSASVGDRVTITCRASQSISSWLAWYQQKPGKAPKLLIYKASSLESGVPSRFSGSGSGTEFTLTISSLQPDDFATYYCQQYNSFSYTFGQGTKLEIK
- Neutralization IC50 [1]: 0.0622 µg/mL
- Neutralization IC90 [1]: 0.523 µg/mL

B9: C049 (antibody, V domains shown)
VH: QVQLQESGPGLVKPSETLSLTCTVSGGSVSSGTFYWSWIRQPPGKGLEWIGYIHYSGSTNYNPSLKSRVTISVDTSKNQFSLRLSSVTAADTAVYYCARESFYYDRSGYYGSDAFDIWGQGTMVTVSS
VL: DIQMTQSPSTLSSSVGDRVTITCRASQNISRWLAWYQQKPGKAPKLLIYKASTLESGVPSRFSGSGSGTKFTLTISSLQPDDFATYYCQQYNSYLYTFGQGTKLEIK
- Neutralization IC50 [1]: 0.0181 µg/mL
- Neutralization IC90 [1]: 0.129 µg/mL

B10: C096 (antibody, V domains shown)
VH: EVQLVESGGGLVKPGGSLRLSCVASGFTFRNAWMNWVRQAPGKGLEWVGRIKANSDGGTIDYAEPVQGRFTISREDSRNSLYLQMNSLKTEDTAVYYCTTGPQYDDFGHSYIVDSWGPGTLVTVSS
VL: DIVMTQSPLSLPVTLGEPASISCRSSQSLLHSNGFHFLEWYLQKPGQSPQLLIYVGSNRASGVPDRFSGSGSGTDFTLKISRVEAEDVGVYYCMQTLQTPLTFGGGTKVEIK
- EC50 [2]: 0.00518 µg/mL

B11: C097 (antibody, V domains shown)
VH: QVQLQESGPGLVKPSQTLSLTCTVSGGSISSGPYYWSWIRQHPGKGLEWIGYIYYSGSTYYNPSLKSRVTISVDTSKKQFSLNLNSVTAADTAVYYCARVWQYYDSTGSFDYWGQGTLVTVSS
VL: DIVMTQSPLSLPVTPGEPASISCRSSRGLLHSNGYNYLDWYLQKPGQSPQLLIYLGSNRASGVPDRFSGSGSVTDFTLNISRVEAEDVGVYYCMQALQTPFTFGPGTKVDIK
- EC50 [2]: 0.00345 µg/mL

B12: C098 (antibody, V domains shown)
VH: EVQLVESGGGLIQPGGSLRLSCAASGFTVSSNYMSWVRQAPGKGLEWVSVIYSGGSTYYADSVKGRFTISRDNSKNTLYLQMNSLRAEDTAVYYCARDLYSSGGTDIWGQGTMVTVSS
VL: not shown
- EC50 [2]: 0.0077 µg/mL

B13: C099 (antibody, V domains shown)
VH: EVQLVESGGGLIQPGGSLRLSCAASGITVSSNYMSWVRQAPGKGLEWVSVMYAGGSTFYADSVKGRFTISRDDSKNTLFLQMNSLRAEDTAIYYCARDLYSSGGTDIWGQGTMVTVSS
VL: EIVLTQSPGTLSLSPGERATLSCRASQSIGSSYLAWYQQKPGLAPRLLIYGASRRATGIPDKFSGSGSGADFTLTISRLEPEDFAVYYCQQYGSSPGTFGQGTKVEIK
- EC50 [2]: 0.00245 µg/mL

B14: C043 (antibody, V domains shown)
VH: QLVQSGPEVKKPGTSVKVSCKASGFTFYNSAVQWVRQARGQRLEWVGWIVVGSGNTDYAQKFQERVTMTRDLSTNTAYMEVNSLRSEDTAVYYCAAPYCSGGTCLDGFDIWGQGTMVTVSS
VL: EIVLTQSPGTLSLSPGERGTLSCRASQSVRSNYLAWYKQRPGQAPRLLVYGASSRATGIPDRFSGSGSGTDFTLTISRLEPEDFAVYYCQQYGSSPWTFGQGTKVEIK
- EC50 [2]: 0.0121 µg/mL

B15: C044 (antibody, V domains shown)
VH: EVQLVESGGGLVQPGGSLRLSCAASGFTFSSYSMNWVRQAPGKGLEWVSYISSSSSTIYYADSVKGRFTISRDNAKNSLYLQMNSLRDEDTAVYYCAREAHDGALTDYGDYLNWFDPWGQGTLVTVSS
VL: SYELTQPPSVSVAPGKTARITCGGNNIGSKSVHWYQQKPGQAPVLVIYYDSDRPSGIPERFSGSNSGNTATLTISRVEAGDEADYYCQVWDSSSDHLYWVFGGGTKLTVL
- EC50 [2]: 1.82 µg/mL

B16: C045 (antibody, V domains shown)
VH: EVQLVESGGGLVQPGGSLRLSCAASGFTFSTYSMNWVRQAPGKGLEWVSYISSSSSTIHYADSVKGRFTISRDNAKNSLYLQMNSLRDEDTAVYYCAREAHDGALTDYGDYLNWFDPWGQGTLVTVSS
VL: SYELTQPPSVSVAPGKTARITCGGTNIGSKNVHWYQQKPGQAPVLVIYYDNDRPSGIPERFSGSNSGNTATLTISRVEAGDEADYYCQVWDTTSDHFYWVFGGGTKLTVL
- EC50 [2]: 0.007 µg/mL

B17: C582 (antibody, V domains shown)
VH: QVQLVESGGGVVQPGRSLRLSCVASGFTFSYFDMHWVRQAPGKGLEWVALISHDGSTTFYGDSARGRFTISRDNSRNTLDLQMNSLRPEDTAVYFCAKPVDAAMFDFWGQGTLVTVS
VL: SYELTQPPSVSVAPGKTARITCGGNNIGSKSVHWYQQRPGQAPVLVIYYDSDRPSGIPERFSGSNSGNTATLTISRVEAGDEADFYCQVWDRSTNHLVVFGGGTQLTVL
- EC50 [3]: 0.00843 µg/mL

B18: C583 (antibody, V domains shown)
VH: EVQLVESGGGLIQPGGSLRLSCAASILTVSRNYMSWVRQAPGKGLEWVSSIYSGGTTYYADSVKGRFTISRDDSKNTLYLQMNSLRAEDTAVYYCARPVVGGRAGMDVWGQGTTVTVSS
VL: DIQMTQSPSSLSASVGDRVTITCQASQDINKYLNWYQQKPGKAPKLLIYDASNLETGVPSRFSGSGSGTDFTFTISSLQPEDIGTFYCLHNDNPPLTFGGGTKVEIK
- EC50 [3]: 0.00442 µg/mL

B19: C584 (antibody, V domains shown)
VH: EVQLVESGGGLVQPGGSLRLSCAASGFTFSTYDMHWVRQATGKGLEWVSAIGTAGDKYYPGSVKGRFTISRENAKNSLYLQMNSLRAGDTAVYYCVRAGYSSGWPLYWYFDLWGRGTLVTVSS
VL: DIQMTQSPSSLSASVGDRVTITCRASQSISSYLNWYQQKPGKAPKFLIYAASSLQSGVPSRFSGSGSGTDFTLTISNLQPEDFATYYCQQSYRTPPEFTFGPGTKVDIK
- EC50 [3]: 0.0105 µg/mL

B20: C585 (antibody, V domains shown)
VH: QVQLQESGPGLVKPSETLSLTCTVSGDSISSYFWSWIRQPPGRGLEWIGYIHDSVNTNYNPSLKSRVTISVDTSKSQFSLRLSSVTAADTAVYYCARCAWLRGSFDYWGQGTLVTVSS
VL: NFMLTQPHSVSESPGKTVTISCTGSSGSIASNYVQWYQQRPGSAPTTVIYEDNQRPSGVPDRFSGSIDSSSNSASLTISGLKTEDEADYYCQSYDFSSHYVFGTGTKVTVL
- EC50 [3]: 0.011 µg/mL

B21: C586 (antibody, V domains shown)
VH: EVQLVESGGGLIQPGGSLRLSCTASGLIVSSNYMSWIRQAPGKGLEWVSLIYSGGSTFYADSVKGRFTISRDNSKNTLFLHMNSLRAEDTAVYYCARHPYGTDVWGQGTTVTVSS
VL: DIQMTQSPSSLSASVGDRVTITCQASQDIVKYLNWYQQKSGKAPKLLIHDASNLETGVTSRFSGSGSGTHFTFTISSLQPEDLATYYCQQYDNLPITFGQGTRLEIK
- EC50 [3]: 0.00542 µg/mL
